Data published in the supplement of paper PMC7877785.
± gives the uncertainty stated by the source.

Assay: self-splicing fitness, log relative to wild type (ln ratio); higher = more splicing; Tetrahymena group I intron in knt gene, E. coli kanamycin selection, DiMSum; sequences stand for … in CUCUCU…GGAGGGAAAAGUUAUCAGGCAUGCACCUGGUAGCUAGUCUUUAAACCAAUAGAUUGCAUCGGUUUAAAAGGCAAGACCGUCAAAUUGCGGGAAAGGGGUCAACAGCCGUUCAGUACCAAGUCUCAGGGGAAACUUUGAGAUGGCCUUGCAAAGGGUAUGGUAAUAAGCUGACGGACAUGGUCCUAACCACGCAGCCAAGUCCUAAGUCAACAGAUCUUCUGUUGAUAUGGAUGCAGUUCACAGACUAAAUGUCGGUCGGGGAAGAUGUAUUCUUCUCAUAAGAUAUAGUCGGACCUCUCCUUAAUGGGAGCUAGCGGAUGAAGUGAUGCAACACUGGAGCCGCUGGGAACUAAUUUGUAUGCGAAAGUAUAUUGAUUAGUUUUGGAGUACUCGUGGUCG
How it was run: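 Colonies from six replicate transformations of E. coli BL21(DE3) were pooled and amplicon-sequenced on an Illumina HiSeq 2500. The library placed an intron with all eight P1ex-region nucleotides randomised inside the knt kanamycin-resistance gene on pET-22b(+), and cells grew overnight at 37°C or 30°C on LB agar with or without 25 μg/mL kanamycin (plus 100 μg/mL carbenicillin, 50 μM IPTG, 0.2% rhamnose). Fitness is the DiMSum error-weighted combination of wild-type-normalised replicate fold changes, kanamycin versus none.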

| Sequence | self-splicing fitness (ln) (30 °C) | self-splicing fitness (ln) (37 °C) |
| --- | --- | --- |
| GUCCAGCAAUAUUACGUCAA | -1.23 ± 0.12 | -1.99 ± 0.14 |
| GUCGAGCAAUAUUACGAGCA | -1.76 ± 0.3 | – |
| GUCGAGCAAUAUUACGAUGG | -3.01 ± 0.28 | -1.85 ± 0.18 |
| GUCGAGCAAUAUUACGCAUC | -2.31 ± 0.26 | -0.574 ± 0.22 |
| GUCGAGCAAUAUUACGCCAG | – | -2 ± 0.43 |
| GUCGAGCAAUAUUACGCCCG | -2.96 ± 0.48 | -2.03 ± 0.4 |
| GUCGAGCAAUAUUACGCUCU | -1.61 ± 0.24 | -1.39 ± 0.23 |
| GUCGAGCAAUAUUACGCUGC | – | -1.97 ± 0.48 |
| GUCGAGCAAUAUUACGGAAG | -3.26 ± 0.26 | -2.35 ± 0.28 |
| GUCGAGCAAUAUUACGGCCA | -1.28 ± 0.36 | -0.721 ± 0.27 |
| GUCGAGCAAUAUUACGGCGG | – | -2.67 ± 0.41 |
| GUCGAGCAAUAUUACGGCUG | -2.54 ± 0.25 | -1.7 ± 0.39 |
| GUCGAGCAAUAUUACGGUGA | -2.64 ± 0.15 | -1.91 ± 0.2 |
| GUCGAGCAAUAUUACGUGCC | -2.63 ± 0.29 | – |
| GUCGAGCAAUAUUACGUGGC | -3.63 ± 0.2 | -1.09 ± 0.17 |
| GUCGAGCAAUAUUACGUGUG | -0.922 ± 0.12 | -0.585 ± 0.17 |
| GUCGAGCAAUAUUACGUUAG | -2.95 ± 0.27 | -1.2 ± 0.2 |
| GUCGAGCAAUAUUACGUUGA | -2.98 ± 0.16 | -3.79 ± 0.34 |
| GUCGAGCAAUAUUACGUUGG | -1.9 ± 0.16 | -2.95 ± 0.47 |
| GUCUAGCAAUAUUACGAGUA | -1.19 ± 0.21 | -1.39 ± 0.22 |
| GUCUAGCAAUAUUACGAUAC | 0.218 ± 0.22 | -0.815 ± 0.22 |
| GUCUAGCAAUAUUACGAUGU | -1.11 ± 0.074 | 0.257 ± 0.086 |
| GUCUAGCAAUAUUACGAUUG | – | -2.14 ± 0.26 |
| GUCUAGCAAUAUUACGCACG | -1.27 ± 0.18 | -1.14 ± 0.18 |
| GUCUAGCAAUAUUACGCAUG | -0.786 ± 0.1 | -0.64 ± 0.16 |

| Sequence | self-splicing fitness (ln) (30 °C) | self-splicing fitness (ln) (37 °C) |
| --- | --- | --- |
| GUCUAGCAAUAUUACGCUAA | -0.815 ± 0.091 | 0.163 ± 0.093 |
| GUCUAGCAAUAUUACGGCAA | -1.61 ± 0.25 | 0.441 ± 0.17 |
| GUCUAGCAAUAUUACGGGGU | -3.56 ± 0.19 | -2.04 ± 0.13 |
| GUCUAGCAAUAUUACGUAAG | -1.02 ± 0.099 | -0.654 ± 0.13 |
| GUCUAGCAAUAUUACGUGAU | -1.04 ± 0.09 | -0.766 ± 0.1 |
| GUCUAGCAAUAUUACGUGCG | -1.76 ± 0.11 | -1.27 ± 0.12 |
| GUCUAGCAAUAUUACGUGGG | -2.01 ± 0.12 | -1.64 ± 0.16 |
| GUCUAGCAAUAUUACGUGGU | -2.5 ± 0.09 | -0.907 ± 0.078 |
| GUCUAGCAAUAUUACGUUAA | -0.894 ± 0.097 | -0.331 ± 0.094 |
| GUGAAGCAAUAUUACGACAA | 0.0822 ± 0.12 | 0.396 ± 0.16 |
| GUGAAGCAAUAUUACGACGA | 0.184 ± 0.15 | 0.158 ± 0.22 |
| GUGAAGCAAUAUUACGAGGC | -2.59 ± 0.25 | -1.1 ± 0.22 |
| GUGAAGCAAUAUUACGAUCC | -3.08 ± 0.31 | 0.244 ± 0.18 |
| GUGAAGCAAUAUUACGAUUG | -1.38 ± 0.11 | -1.78 ± 0.14 |
| GUGAAGCAAUAUUACGCAAC | -2.59 ± 0.17 | -2.08 ± 0.22 |
| GUGAAGCAAUAUUACGCACA | 0.0998 ± 0.15 | 0.512 ± 0.18 |
| GUGAAGCAAUAUUACGCACG | -0.996 ± 0.12 | -0.777 ± 0.13 |
| GUGAAGCAAUAUUACGCAUA | -0.646 ± 0.15 | -0.0533 ± 0.17 |
| GUGAAGCAAUAUUACGCCGC | -2.25 ± 0.16 | -1.5 ± 0.26 |
| GUGAAGCAAUAUUACGCCUG | -0.422 ± 0.091 | 0.015 ± 0.13 |
| GUGAAGCAAUAUUACGCGUA | -0.298 ± 0.14 | 0.0699 ± 0.14 |
| GUGAAGCAAUAUUACGCUCU | -1.79 ± 0.12 | -0.652 ± 0.13 |
| GUGAAGCAAUAUUACGGAUA | -1.37 ± 0.096 | -1.13 ± 0.1 |
| GUGAAGCAAUAUUACGGCCG | -1.03 ± 0.13 | -0.435 ± 0.17 |
| GUGAAGCAAUAUUACGGCGC | -0.501 ± 0.17 | -0.89 ± 0.14 |

| Sequence | self-splicing fitness (ln) (30 °C) | self-splicing fitness (ln) (37 °C) |
| --- | --- | --- |
| GUGAAGCAAUAUUACGGGAC | -1.8 ± 0.12 | -0.623 ± 0.13 |
| GUGAAGCAAUAUUACGGUAA | -0.519 ± 0.073 | -0.169 ± 0.1 |
| GUGAAGCAAUAUUACGUAUC | -1.08 ± 0.059 | 0.384 ± 0.068 |
| GUGAAGCAAUAUUACGUCAC | – | -2.47 ± 0.48 |
| GUGAAGCAAUAUUACGUCAU | -3.04 ± 0.2 | -2.68 ± 0.28 |
| GUGAAGCAAUAUUACGUCUA | 0.147 ± 0.049 | 0.251 ± 0.066 |
| GUGAAGCAAUAUUACGUGUG | -0.934 ± 0.089 | -0.737 ± 0.11 |
| GUGAAGCAAUAUUACGUUAU | -1.15 ± 0.08 | -1.2 ± 0.11 |
| GUGAAGCAAUAUUACGUUCA | -1.45 ± 0.078 | -0.809 ± 0.09 |
| GUGAAGCAAUAUUACGUUCU | -0.0481 ± 0.072 | -0.218 ± 0.086 |
| GUGAAGCAAUAUUACGUUGA | -1.56 ± 0.078 | -0.398 ± 0.093 |
| GUGCAGCAAUAUUACGACAU | -0.587 ± 0.013 | -0.143 ± 0.032 |
| GUGCAGCAAUAUUACGACCC | -0.76 ± 0.13 | 0.132 ± 0.18 |
| GUGCAGCAAUAUUACGAGAU | -3.67 ± 0.2 | -1.98 ± 0.19 |
| GUGCAGCAAUAUUACGAGUU | -2.49 ± 0.15 | -1.62 ± 0.15 |
| GUGCAGCAAUAUUACGCCAA | -1.41 ± 0.14 | -1.72 ± 0.14 |
| GUGCAGCAAUAUUACGCUCG | -0.5 ± 0.091 | -0.883 ± 0.13 |
| GUGCAGCAAUAUUACGGGAA | -3.67 ± 0.25 | -1.9 ± 0.13 |
| GUGCAGCAAUAUUACGGGGG | -4.19 ± 0.23 | -2.58 ± 0.18 |
| GUGCAGCAAUAUUACGUAUU | -1.7 ± 0.1 | -1.78 ± 0.12 |
| GUGCAGCAAUAUUACGUUCA | 0.191 ± 0.072 | -0.181 ± 0.081 |
| GUGGAGCAAUAUUACGAACU | -0.836 ± 0.28 | -1.14 ± 0.42 |
| GUGGAGCAAUAUUACGACAU | -2.402 ± 0.022 | -1.48 ± 0.038 |
| GUGGAGCAAUAUUACGAGUC | – | -2.24 ± 0.31 |
| GUGGAGCAAUAUUACGCAAU | -1.83 ± 0.1 | -1.25 ± 0.13 |

| Sequence | self-splicing fitness (ln) (30 °C) | self-splicing fitness (ln) (37 °C) |
| --- | --- | --- |
| GUGGAGCAAUAUUACGCAUG | -3.81 ± 0.21 | -1.8 ± 0.15 |
| GUGGAGCAAUAUUACGCCGU | 0.631 ± 0.42 | -1.15 ± 0.37 |
| GUGGAGCAAUAUUACGCGCG | -1.79 ± 0.25 | -2.11 ± 0.31 |
| GUGGAGCAAUAUUACGCUCC | -1.83 ± 0.35 | – |
| GUGGAGCAAUAUUACGGAUC | -1.1 ± 0.25 | -0.583 ± 0.21 |
| GUGGAGCAAUAUUACGGCCG | -3.44 ± 0.28 | -2.03 ± 0.22 |
| GUGGAGCAAUAUUACGGCGU | -1.29 ± 0.26 | -0.557 ± 0.48 |
| GUGGAGCAAUAUUACGGGAG | -3.74 ± 0.37 | -1.8 ± 0.3 |
| GUGGAGCAAUAUUACGGGCC | – | -0.665 ± 0.48 |
| GUGGAGCAAUAUUACGGUCG | -4.21 ± 0.43 | -1.5 ± 0.45 |
| GUGGAGCAAUAUUACGGUGC | -2.76 ± 0.24 | -1.93 ± 0.25 |
| GUGGAGCAAUAUUACGUCAU | -4.2 ± 0.32 | -3.24 ± 0.33 |
| GUGGAGCAAUAUUACGUCGU | -1.65 ± 0.21 | -1.48 ± 0.26 |
| GUGGAGCAAUAUUACGUGAA | – | -0.49 ± 0.28 |
| GUGGAGCAAUAUUACGUUCG | -1.45 ± 0.2 | -0.499 ± 0.25 |
| GUGGAGCAAUAUUACGUUGG | -3.39 ± 0.28 | -3.36 ± 0.43 |
| GUGUAGCAAUAUUACGAAAA | -2.71 ± 0.4 | -1.51 ± 0.29 |
| GUGUAGCAAUAUUACGACGG | -3.88 ± 0.31 | -0.904 ± 0.15 |
| GUGUAGCAAUAUUACGACUC | -0.267 ± 0.15 | -0.0849 ± 0.21 |
| GUGUAGCAAUAUUACGAUAG | -3.84 ± 0.27 | -0.946 ± 0.19 |
| GUGUAGCAAUAUUACGAUUG | -4.18 ± 0.3 | -2.18 ± 0.2 |
| GUGUAGCAAUAUUACGCAAC | – | -0.636 ± 0.23 |
| GUGUAGCAAUAUUACGCGGC | -2.8 ± 0.29 | -0.745 ± 0.23 |
| GUGUAGCAAUAUUACGCGUC | -3.17 ± 0.21 | -0.598 ± 0.14 |
